# B1: Caspase-8 (Homo sapiens), Q14790 (parent)
# chain: MDFSRNLYDIGEQLDSEDLASLKFLSLDYIPQRKQEPIKDALMLFQRLQEKRMLEESNLSFLKELLFRINRLDLLITYLNTRKEEMERELQTPGRAQISAYRVMLYQISEEVSRSELRSFKFLLQEEISKCKLDDDMNLLDIFIEMEKRVILGEGKLDILKRVCAQINKSLLKIINDYEEFSKERSSSLEGSPDEFSNGEELCGVMTISDSPREQDSESQTLDKVYQMKSKPRGYCLIINNHNFAKAREKVPKLHSIRDRNGTHLDAGALTTTFEELHFEIKPHDDCTVEQIYEILKIYQLMDHSNMDCFICCILSHGDKGIIYGTDGQEAPIYELTSQFTGLKCPSLAGKPKVFFIQACQGDNYQKGIPVETDSEEQPYLEMDLSSPQTRYIPDEADFLLGMATVNNCVSYRNPAEGTWYIQSLCQSLRERCPRGDDILTILTEVNYEVSNKDDKKNMGKQMPQPTFTLRKKLVFPSD
# Variants of: B1
# Conditions: with bcl2_human BCL2, P10415
# Chain of bcl2_human BCL2, P10415 (P10415 whole entry): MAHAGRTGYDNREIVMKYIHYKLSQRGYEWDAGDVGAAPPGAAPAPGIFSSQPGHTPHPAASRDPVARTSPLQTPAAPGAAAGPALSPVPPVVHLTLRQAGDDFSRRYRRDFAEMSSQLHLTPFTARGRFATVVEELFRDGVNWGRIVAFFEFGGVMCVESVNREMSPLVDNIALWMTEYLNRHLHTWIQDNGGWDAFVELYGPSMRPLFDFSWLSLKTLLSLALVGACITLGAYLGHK
row,Variant,effect of a mutation on the interaction
1,MDFSRNLYDIGEQLDSEDLASLKFLSLDYIPQRKQEPIKDALMLFQRLQEKRMLEESNLSFLKELLFRINRLDLLITYLNTRKEEMERELQTPGRAQISAYRVMLYQISEEVSRSELRSFKFLLQEEISKCKLDDDMNLLDIFIEMEKRVILGEGKLDILKRVCAQINKSLLKIINDYEEFSKERSSSLEGSPDEFSNGEELCGVMTISDSPREQDSESQTLDKVYQMKSKPRGYCLIINNHNFAKAREKVPKLHSIRDRNGTHLDAGALTTTFEELHFEIKPHDDCTVEQIYEILKIYQLMDHSNMDCFICCILSHGDKGIIYGTDGQEAPIYELTSQFTGLKCPSLAGKPKVFFIQASQGDNYQKGIPVETDSEEQPYLEMDLSSPQTRYIPDEADFLLGMATVNNCVSYRNPAEGTWYIQSLCQSLRERCPRGDDILTILTEVNYEVSNKDDKKNMGKQMPQPTFTLRKKLVFPSD [C360S],increasing interaction
